Measurements: publication PMC3413145
Where two headings read alike, the source gives them in different places.

Tests used:
Assay in all cases: EMSA
[1] = molecular target: T1, RNAP core enzyme (alpha2 beta beta' omega);sigmaA;RbpA (Mycobacterium tuberculosis (H37Rv for …, UniProt P9WGZ1;P9WGY9;P9WGY7;P9WGY5;P9WGI1;P9WHJ5 1-347;1-1178;1-1316;1-110;1-528;1-111, ||))
[2] = molecular target: E. coli RNAP core enzyme;sigmaA (Escherichia coli;Mycobacterium …, UniProt P0A7Z4;P0A8V2;P0A8T7;P0A800;P9WGI1 1-329;1-1342;1-1407;1-91;1-528, |)
[3] = molecular target: RNAP core enzyme (alpha2 beta beta' omega);sigmaA (Mycobacterium tuberculosis (H37Rv for …, UniProt P9WGZ1;P9WGY9;P9WGY7;P9WGY5;P9WGI1 1-347;1-1178;1-1316;1-110;1-528, |))
[4] = molecular target: T1, RNAP core enzyme (alpha2 beta beta' …); remark: listed apart in the source

B1: rrnAP3 promoter fragment (150 bp) (dsDNA)
DNA 1: ATCGAACGGGTATGCTGTTAGGCGACGGTCACCTATGGATATCTATGGATGACCGAACCTGGTCTTGACTCCATTGCCGGATTTGTATTAGACTGGCAGGGTTGCCCCGAAGCGGGCGGAAACAAGCAAGCGTGTTGTTTGAGAACTCAA
DNA 2: TTGAGTTCTCAAACAACACGCTTGCTTGTTTCCGCCCGCTTCGGGGCAACCCTGCCAGTCTAATACAAATCCGGCAATGGAGTCAAGACCAGGTTCGGTCATCCATAGATATCCATAGGTGACCGTCGCCTAACAGCATACCCGTTCGAT
binding result [1]: binds
binding result [2]: binds
binding result [3]: binds

B2: sinP3 promoter fragment (127 bp) (dsDNA)
DNA 1: TTTAAACAAAAAGTCTGCTCATCCTGGTCCGGCAGCCAGAAGTCATACCGTAAATCCTTTCTGAATGTGCTATAATATCACAAGGAAGGTGATGACATTGATTGGCCAGCGTATTAAACAATACCGT
DNA 2: ACGGTATTGTTTAATACGCTGGCCAATCAATGTCATCACCTTCCTTGTGATATTATAGCACATTCAGAAAGGATTTACGGTATGACTTCTGGCTGCCGGACCAGGATGAGCAGACTTTTTGTTTAAA
binding result [4]: binds
